The experiment has as its target Synaptotagmin 2 K60A expressed in PC12 or HEK 293 cells (UniProt P29101). As to the kind of experiment: immunostaining of cells or tissue.

Values joined by “and” are separate entries in the source; they are usually repeats but may differ in a detail not shown here. Equal values may be shown once.

Sequence of UniProt P29101 (P29101 whole entry K60A): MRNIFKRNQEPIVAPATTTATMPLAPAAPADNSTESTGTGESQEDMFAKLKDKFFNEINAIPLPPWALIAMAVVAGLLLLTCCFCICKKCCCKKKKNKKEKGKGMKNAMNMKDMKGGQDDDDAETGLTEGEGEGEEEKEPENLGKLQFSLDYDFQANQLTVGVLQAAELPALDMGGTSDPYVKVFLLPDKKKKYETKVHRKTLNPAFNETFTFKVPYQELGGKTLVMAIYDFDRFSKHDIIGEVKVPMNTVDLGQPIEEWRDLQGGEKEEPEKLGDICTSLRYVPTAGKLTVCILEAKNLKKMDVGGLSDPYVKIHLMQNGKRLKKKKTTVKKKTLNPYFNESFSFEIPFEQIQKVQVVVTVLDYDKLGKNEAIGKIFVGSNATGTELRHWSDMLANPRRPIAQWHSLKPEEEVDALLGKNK

On to “Botulinum neurotoxin serotype B (B1 Okra strain) with non-toxic accessory proteins (complex)”, for which the decrease of BoNT/B binding against SYT2-WT is 64% and 69%.

The values above are taken from doi:10.1101/2021.10.18.464377.
